B1: hHDAC6 CD12 (Homo sapiens) (protein)
chain: MTSTGQDSTTTRQRRSRQNPQSPPQDSSVTSKRNIKKGAVPRSIPNLAEVKKKGKMKKLGQAMEEDLIVGLQGMDLNLEAEALAGTGLVLDEQLNEFHCLWDDSFPEGPERLHAIKEQLIQEGLLDRCVSFQARFAEKEELMLVHSLEYIDLMETTQYMNEGELRVLADTYDSVYLHPNSYSCACLASGSVLRLVDAVLGAEIRNGMAIIRPPGHHAQHSLMDGYCMFNHVAVAARYAQQKHRIRRVLIVDWDVHHGQGTQFTFDQDPSVLYFSIHRYEQGRFWPHLKASNWSTTGFGQGQGYTINVPWNQVGMRDADYIAAFLHVLLPVALEFQPQLVLVAAGFDALQGDPKGEMAATPAGFAQLTHLLMGLAGGKLILSLEGGYNLRALAEGVSASLHTLLGDPCPMLESPGAPCRSAQASVSCALEALEPFWEVLVRSTETVERDNMEEDNVEESEEEGPWEPPVLPILTWPVLQSRTGLVYDQNMMNHCNLWDSHHPEVPQRILRIMCRLEELGLAGRCLTLTPRPATEAELLTCHSAEYVGHLRATEKMKTRELHRESSNFDSIYICPSTFACAQLATGAACRLVEAVLSGEVLNGAAVVRPPGHHAEQDAACGFCFFNSVAVAARHAQTISGHALRILIVDWDVHHGNGTQHMFEDDPSVLYVSLHRYDHGTFFPMGDEGASSQIGRAAGTGFTVNVAWNGPRMGDADYLAAWHRLVLPIAYEFNPELVLVSAGFDAARGDPLGGCQVSPEGYAHLTHLLMGLASGRIILILEGGYNLTSISESMAACTRSLLGDPPPLLTLPRPPLSGALASITETIQVHRRYWRSLRVMKVEDREGPSSSKLVTKKAPQPAKPRLAERMTTREKKVLEAGMGKVTSASFGEESTPGQTNSETAVVALTQDQPSEAATGGATLAQTISEAAIGGAMLGQTTSEEAVGGATPDQTTSEETVGGAILDQTTSEDAVGGATLGQTTSEEAVGGATLAQTTSEAAMEGATLDQTTSEEAPGGTELIQTPLASSTDHQTPPTSPVQGTTPQISPSTLIGSLRTLELGSESQGASESQAPGEENLLGEAAGGQDMADSMLMQGSRGLTDQAIFYAVTPLPWCPHLVAVCPIPAAGLDVTQPCGDCGTIQENWVCLSCYQVYCGRYINGHMLQHHGNSGHPLVLSYIDLSAWCYYCQAYVHHQALLDVKNIAHQNKFGEDMPHPH
notes: both catalytic domains CD1-CD2
B2: zHDAC10Δ (Danio rerio) (protein)
chain: MASGSALIFDEEMSRYKLLWTDPACEIEVPERLTVSYEALRTHGLAQRCKAVPVRQATEQEILLAHSEEYLEAVKQTPGMNVEELMAFSKKYNDVYFHQNIYHCAKLAAGATLQLVDSVMKREVRNGMALVRPPGHHSQRSAANGFCVFNNVAIAALYAKKNYNLNRILIVDWDVHHGQGIQYCFEEDPSVLYFSWHRYEHQSFWPNLPESDYSSVGKGKGSGFNINLPWNKVGMTNSDYLAAFFHVLLPVAYEFDPELVIVSAGFDSAIGDPEGEMCALPEIFAHLTHLLMPLAAGKMCVVLEGGYNLTSLGQSVCQTVHSLLGDPTPRISGLGTACDSALESIQNVRNVQSSYWSSFKHLAQSETNPKRPRLDATNGGPKESSEPASESNPKKTAQDIVWPEPLKRMPASVRTVVVPPPGVELTLPKNCQHSGDISESTAKEVQRIRDKHFHDLTDQNILRSLGNIISVLDRMMRSDEVCNGCVVVSDLSVSVQCALQHALTEPAERVLVVYVGDGELPVKTNDGKVFLVQICTKETEDKCVNRLSLCLREGESLTAGFMQALLGLILPVAYEFNPALVLGIVGETAAKTGLMTVWGHMTCLIQGLARGRTLTLLQGYDKDLLELTVSALSGASISPLGPLRALKPEDVEMMEKQRQRLQERWGLLRCTVSES
notes: proteolytically (trypsin) nicked zHDAC10, heterodimer of PDAC and pseudo-deacetylase domains

Tests used:
Test in all cases: purified protein, by the assay type
[1] = substrate: CC(=O)NCCCC[C@H](NC(=O)[C@H](C)NC(=O)CNC(C)=O)C(=O)Nc1ccc2c(C)cc(=O)oc2c1; design: fluorogenic AMC-conjugated acetyllysine peptide deacetylation, steady-state kinetics
Text: To determine steady-state kinetic parameters for the hydrolysis of a variety of acetylpolyamine and acetyllysine substrates, we prepared full-length recombinant HDAC10 from human (H. sapiens, hHDAC10) and zebrafish (D. rerio, zHDAC10). The CDs of these orthologues are highly similar based on 63%/79% sequence identity/similarity; only full-length constructs yielded soluble proteins. We first assayed the lysine deacetylase activity of these constructs against two commercially available aminomethylcoumarin (AMC)-conjugated fluorogenic acetyllysine peptides, GAK(ac)-AMC and RGK(ac)-AMC (molecular structures of all substrates are shown in Supplementary Fig. 2). […] These measurements were consistent with earlier studies reporting that HDAC10 activity was not measurable using fluorogenic peptide substrates. We also tested activity with 11 non-fluorogenic acetyllysine substrates using a […] chromatography–mass spectrometry (LC–MS)-based discontinuous assay[17] to avoid potential steric clashes that might occur with the bulky AMC group. These substrates included K(ac)NL and GAK(ac)NLQ, which mimic the peptide segment containing K73 in the proposed HDAC10 substrate MutS homologue 2 (MSH2)[22]. Again, we observed no or very low catalytic activity (Fig. 2 and Supplementary Table 1). In comparison with its closest relative, the cytosolic isozyme HDAC6 (ref. [17]), HDAC10 was clearly not an efficient lysine deacetylase.

[2] = substrate: CC(=O)NCCCCN; design: steady-state kinetics of acetylpolyamine deacetylation, discontinuous LC-MS after dansyl chloride derivatization; conditions: 50.0 °C
Description: (§1) To study steady-state kinetics with non-fluorogenic peptide substrates and acetylpolyamines, a discontinuous LC–MS was employed based on the protocol of assaying nonfluorogenic acetyllysine peptide substrates for HDAC6 (ref. [17]). Assays were performed in triplicate. Briefly, 5 μl of enzyme (0.050–20 μM) in HEPES buffer (20 mM HEPES (pH 7.5), 100 mM NaCl, 5 mM KCl, 1 mM MgCl2) was added to 35 μl of substrate solution to initiate the reaction. After incubation for 15–60 min at room temperature, the reaction was quenched by addition of 50 μl of 20 mM dansyl chloride dissolved in acetonitrile followed by 10 μl of NaHCO3 (1.6 M, pH 10.0). The deacetylation products were derivatized with dansyl chloride at 50 °C for 2 hrs. The deacetylation products were detected by LC–MS using a Waters SQD equipped with an Acquity UPLC (Waters, Milford, MA, USA) and quantified by using the standard curves generated from the mass signals of the corresponding deacetylated polyamines and peptides. Inhibition of HDAC10 activity was measured by using 0.49 μM zHDAC10 with 192 μM N^8-acetylspermidine. Data were analysed by logistic regression for IC50 determination and the inhibition constant Ki was calculated based on the Cheng-Prusoff equation, Ki=IC50 / (1+[S]/KM)[45]. Assays were performed in triplicate at room temperature. We next tested the PDAC activity of hHDAC10 and zHDAC10 against several polyamine substrates using the LC–MS assay (Fig. 2, Supplementary Fig. 3 and Supplementary Table 1). […] For hHDAC10 and zHDAC10, kcat/KM=2,900±200 and 4,600±300 M^−1 s^−1, respectively; in comparison, N^1-acetylspermidine was a poor substrate with kcat/KM=24±5 and 7±2 M^−1 s^−1, respectively. Substrate specificity trends observed for zHDAC10 and hHDAC10 matched those of the previously reported mammalian N^8-acetylspermidine deacetylase activity. […] As a negative control, we examined the N^8-acetylspermidine deacetylase activity of human and zebrafish HDAC6 (ref. [17]). HDAC6 preferentially catalyses the deacetylation of the peptide substrate RGK(ac)-AMC with a catalytic efficiency >100-fold greater than that for the deacetylation of N^8-acetylspermidine. Therefore, HDAC6 is clearly an acetyllysine deacetylase and HDAC10 is an N^8-acetylspermidine deacetylase. It is notable that the molecular function of HDAC10 coincides with the cellular function of the cytosolic PDAC indicated in Fig. 1a.

[3] = substrate: CC(=O)NCCCCCN; design: steady-state kinetics of acetylpolyamine deacetylation, discontinuous LC-MS after dansyl chloride derivatization; conditions: 50.0 °C
Description: as §1

[4] = substrate: CC(=O)NCCCCNCCCN; design: steady-state kinetics of acetylpolyamine deacetylation, discontinuous LC-MS after dansyl chloride derivatization; conditions: 50.0 °C
Description: as §1

Row | Protein | Km [1] [µM] | kcat [1] [s⁻¹] | kcat/Km [1] [M⁻¹ s⁻¹] | Km [2] [µM] | kcat [2] [s⁻¹] | kcat/Km [2] [M⁻¹ s⁻¹] | Km [3] [µM] | kcat [3] [s⁻¹] | kcat/Km [3] [M⁻¹ s⁻¹] | Km [4] [µM] | kcat [4] [s⁻¹] | kcat/Km [4] [M⁻¹ s⁻¹]
1 | B1 | 14 ± 2 | 0.039 ± 0.007 | 2800 ± 400 | – | – | – | – | – | – | – | – | –
2 | B2 | 40 ± 20 | – | – | 80 ± 30 | 0.081 ± 0.009 | 980 ± 90 | 60 ± 10 | 0.036 ± 0.002 | 600 ± 80 | 70 ± 30 | 0.06 ± 0.007 | 800 ± 100

— paper PMC5454378, “Histone deacetylase 10 structure and molecular function as a polyamine deacetylase” (Nature Communications, 2017)
